T1: human CD19 on Raji cells (human, UniProt P15391 20-556)
T1 construct: whole, on cells
T1 sequence (looked up): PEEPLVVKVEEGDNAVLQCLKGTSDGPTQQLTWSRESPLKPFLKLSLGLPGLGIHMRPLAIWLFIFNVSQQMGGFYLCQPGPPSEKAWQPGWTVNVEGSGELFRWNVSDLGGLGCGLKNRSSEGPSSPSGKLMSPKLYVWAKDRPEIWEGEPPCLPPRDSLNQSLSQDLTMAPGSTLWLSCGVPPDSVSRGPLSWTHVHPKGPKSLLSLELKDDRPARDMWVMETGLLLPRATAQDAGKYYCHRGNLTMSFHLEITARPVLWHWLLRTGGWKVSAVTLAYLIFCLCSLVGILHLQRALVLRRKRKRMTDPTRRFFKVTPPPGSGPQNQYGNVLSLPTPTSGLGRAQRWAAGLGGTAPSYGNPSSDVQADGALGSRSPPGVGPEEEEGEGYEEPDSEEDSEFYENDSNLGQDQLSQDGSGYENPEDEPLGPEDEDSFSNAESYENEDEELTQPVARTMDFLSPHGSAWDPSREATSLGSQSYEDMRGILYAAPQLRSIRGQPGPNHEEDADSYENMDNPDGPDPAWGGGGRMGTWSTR

T2: Human CD19-his protein (human, UniProt P15391 20-291)
T2 construct: bought protein; also called recombinant human CD19-His; CD19 full-length protein; not shown: His tag
T2 sequence (looked up): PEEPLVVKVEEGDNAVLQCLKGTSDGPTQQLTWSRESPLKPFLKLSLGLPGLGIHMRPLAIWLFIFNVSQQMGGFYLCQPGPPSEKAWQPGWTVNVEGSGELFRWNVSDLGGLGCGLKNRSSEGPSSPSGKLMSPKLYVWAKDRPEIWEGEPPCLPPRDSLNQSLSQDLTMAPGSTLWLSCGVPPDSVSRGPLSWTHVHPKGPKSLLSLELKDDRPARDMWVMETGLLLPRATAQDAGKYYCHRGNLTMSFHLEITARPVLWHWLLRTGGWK

T3: human CD19 on CHO-K1-human CD19 cells (human, UniProt P15391 20-556)
T3 construct: whole, on cells; also called CHO-K1-human CD19-2C8
T3 sequence (looked up): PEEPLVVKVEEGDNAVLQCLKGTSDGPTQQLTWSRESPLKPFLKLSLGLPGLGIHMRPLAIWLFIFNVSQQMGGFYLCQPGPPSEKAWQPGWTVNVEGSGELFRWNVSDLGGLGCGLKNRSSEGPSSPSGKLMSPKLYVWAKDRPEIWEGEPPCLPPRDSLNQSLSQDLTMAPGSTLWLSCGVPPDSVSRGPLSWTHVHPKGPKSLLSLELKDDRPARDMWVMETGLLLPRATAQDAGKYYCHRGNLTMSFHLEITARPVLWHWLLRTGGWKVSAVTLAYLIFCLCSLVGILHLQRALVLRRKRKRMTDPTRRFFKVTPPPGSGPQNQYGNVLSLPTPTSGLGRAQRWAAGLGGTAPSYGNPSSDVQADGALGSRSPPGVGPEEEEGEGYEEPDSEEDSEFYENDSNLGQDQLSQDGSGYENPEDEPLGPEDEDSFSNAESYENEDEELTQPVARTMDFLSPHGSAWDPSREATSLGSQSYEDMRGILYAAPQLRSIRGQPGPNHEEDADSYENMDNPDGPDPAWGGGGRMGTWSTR

T4: human CD19 exon1-3-His tag protein (human, UniProt P15391 20-186, limits assumed)
T4 construct: membrane-distal part of the extracellular region, made in HEK293E cells; not shown: His tag
T4 sequence (looked up): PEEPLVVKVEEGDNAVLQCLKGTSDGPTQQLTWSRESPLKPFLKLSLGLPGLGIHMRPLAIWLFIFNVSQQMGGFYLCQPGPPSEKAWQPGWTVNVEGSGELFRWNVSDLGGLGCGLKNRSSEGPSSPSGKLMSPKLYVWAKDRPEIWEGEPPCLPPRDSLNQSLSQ


What was measured:
human CD19 on Raji cells = target: T1, human CD19 on Raji cells; assay: FACS on Raji cells
Method: (§1) After the digestion was terminated, the cells were washed 2 times with a PBS buffer; and for suspension cell Raji, the supernatant of the medium was discarded by directly centrifugation, and the cell pellet was washed 2 times with PBS. After counting the cells in the previous step, the cell pellet was resuspended with [PBS+2% (w/w) BSA] blocking solution to 2×10⁶ cells/ml, and added to a 96-well FACS reaction plate at 50 μl/well, and then the sample to be tested was added at 50 μl/well, and incubated on ice for 2 h. The obtained mixture was centrifuged and washed 3 times with a PBS buffer. […] The obtained mixture was centrifuged and washed 5 times with a PBS buffer, and FACS (FACS Canto™, purchased from BD Company) was used for detection and result analysis. Data analysis was performed by software (FlowJo) to obtain the mean fluorescence intensity (MFI) of the cells. And then software (GraphPad Prism8) was used for analysis, data fitting, and EC50 value calculation. […] The same method was used to detect the binding of the chimeric antibodies to endogenous CD19-negative cells, MoLT4 cells (purchased from ATCC, CRL-1582), and CHO-K1 cells.

Human CD19-his protein [1] = target: T2, Human CD19-his protein; assay: ELISA, coated human CD19-His
Method: Human CD19-his protein (purchased from ACROBiosystems, catalog number: CD9-H52H2) was diluted with PBS to a final concentration of 4 μg/mL, and then added to a 96-well ELISA plate at 100 μl/well. The plate was sealed with a plastic film and incubated overnight at 4° C., the plate was washed 2 times with PBS the next day, and then a blocking solution [PBS+2% (w/w) BSA] was added for blocking at room temperature for 2 h. The blocking solution was poured off, and 100 nM gradiently diluted CD19 chimeric antibody or control antibody was added at 50 μl/well. After incubation at 37° C. for 2 h, the plate was washed 3 times with PBS. […] TMB substrate was added at 50 μl/well, and incubated at room temperature for 10 min, and then a stop solution (1.0 N HCl) was added at 50 μl/well. The OD450 nm values were read by an ELISA microplate reader (Multimode Plate Reader, EnSight, purchased from Perkin Elmer).

[2] = target: T3, human CD19 on CHO-K1-human CD19 cells; assay: FACS on CHO-K1-human CD19 cells
Method: as §1

Human CD19-his protein [3] = target: T2, Human CD19-his protein; assay: ELISA on coated human CD19-His
[4] = target: T4, human CD19 exon1-3-His tag protein; assay: ELISA, coated human CD19 exon 1-3-His
Human CD19-his protein [5] = target: T2, Human CD19-his protein; assay: SPR Biacore, method of example 7.1, human CD19-His
Method: A sample buffer and a running buffer were HBS-EP+ (10 mM HEPES, 150 mM NaCl, 3 mM EDTA and 0.05% surfactant P20) (GE Healthcare; BR-1006-69). The flow-through cell was set to 25° C. The sample block was set to 16° C. Both were pretreated with the running buffer. In each cycle, an antibody to be detected was first captured with a Protein A chip, and then a single concentration of CD19 antigen protein was injected. The binding and dissociation processes of the antibody and the antigen protein were recorded, and finally Glycine pH 1.5 (GE Healthcare; BR-1003-54) was used to complete chip regeneration. The binding was measured by injecting different concentrations of recombinant human CD19-His proteins in a solution for 240 s with a flow rate of 30 μl/min. The concentration started from 200 nM (see the detailed results for the actual concentration in the test) and was diluted at 1:1, making a total of 5 concentrations. The dissociation phase was monitored for up to 600 s and was triggered by switching from sample solution to running buffer. The surface was regenerated by washing with a 10 mM glycine solution (pH 1.5) for 30 s at a flow rate of 30 μl/min. Bulk refractive index difference was corrected by subtracting the response obtained from the goat anti-human Fc surface. Blank injection was also subtracted (=double reference). For calculation of apparent KD and other kinetic parameters, Langmuir 1:1 model was used.
SPR (biacore) detection and data analysis were performed according to the method in example 7.1.

EC50 (human CD19 on Raji cells) [pM]	Maximum mean fluorescence intensity (human CD19 on Raji cells) [MFI]	OD450 at 0.0001 nM (Human CD19-his protein [1]) [OD450]	OD450 at 0.001 nM (Human CD19-his protein [1]) [OD450]	OD450 at 0.01 nM (Human CD19-his protein [1]) [OD450]	OD450 at 0.10 nM (Human CD19-his protein [1]) [OD450]	OD450 at 1.00 nM (Human CD19-his protein [1]) [OD450]	OD450 at 10 nM (Human CD19-his protein [1]) [OD450]	OD450 at 100 nM (Human CD19-his protein [1]) [OD450]	EC50 [2] [pM]	Maximum mean fluorescence intensity [2] [MFI]	EC50 (read off the curve) (Human CD19-his protein [3]) [pM]	OD450 at 0.0001 nM [4] [OD450]	OD450 at 0.001 nM [4] [OD450]	OD450 at 0.01 nM [4] [OD450]	OD450 at 0.10 nM [4] [OD450]	OD450 at 1.00 nM [4] [OD450]	OD450 at 10 nM [4] [OD450]	OD450 at 100 nM [4] [OD450]	Kd (Human CD19-his protein [5]) [pM]	Binder	also measured
370	29200	0.1	0.14	0.39	1.53	2.36	2.27	2.34	1130	52000	~50	0.05	0.05	0.05	0.05	0.04	0.05	0.08	1530	F3.121.4-L2H4 (antibody, mouse IgG1, kappa, humanized antibody of F3.121.4, VL2+VH4, murine IgG1 constant regions) heavy: EVQLQQSGAEVKKPGASVKVSCKASGYTFTNYWMHWVRQRPGQGLEWMGEIDPSDNYANYNQEFQGRVTITVDKSASTAYMELSSLRSEDTAVYYCARHDGYFGALDYWGQGTTVTVSSAKTTPPSVYPLAPGSAAQTNSMVTLGCLVKGYFPEPVTVTWNSGSLSSGVHTFPAVLQSDLYTLSSSVTVPSSTWPSETVTCNVAHPASSTKVDKKIVPRDCGCKPCICTVPEVSSVFIFPPKPKDVLTITLTPKVTCVVVDISKDDPEVQFSWFVDDVEVHTAQTQPREEQFNSTFRSVSELPIMHQDWLNGKEFKCRVNSAAFPAPIEKTISKTKGRPKAPQVYTIPPPKEQMAKDKVSLTCMITDFFPEDITVEWQWNGQPAENYKNTQPIMDTDGSYFVYSKLNVQKSNWEAGNTFTCSVLHEGLHNHHTEKSLSHSPGK light: EIVLTQSPDFQSVTPKEKVTITCSASSSISSNYLHWYQQKPDQSPKLLIKRTSNLASGVPSRFSGSGSGTDFTLTINSLEAEDAATYYCQQASSIPRMFTFGQGTKLEIKRADAAPTVSIFPPSSEQLTSGGASVVCFLNNFYPKDINVKWKIDGSERQNGVLNSWTDQDSKDSTYSMSSTLTLTKDEYERHNSYTCEATHKTSTSPIVKSFNRNEC	koff (Human CD19-his protein [5]): 0.000186 s⁻¹; kon (Human CD19-his protein [5]): 122000 M⁻¹ s⁻¹
420	32200	0.1	0.14	0.42	1.6	2.36	2.3	2.28	1080	52100	~50	0.05	0.05	0.05	0.05	0.05	0.05	0.12	0.0498	F3.121.4-L3H2 (antibody, mouse IgG1, kappa, V domains shown, humanized antibody of F3.121.4, VL3+VH2, murine IgG1 constant regions) VH: EVQLVQSGAEVKKPGASVKVSCKASGYTFTNYWMHWVRQAPGQGLEWMGEIDPSDNYANYNQEFQGRVTITVDKSASTAYMELSSLRSEDTAVYYCARHDGYFGALDYWGQGTTVTVSS VL: EIVLTQSPDFQSVTPKEKVTITCSASSSISSNYLHWYQQKPDQSPKFLIYRTSNLASGVPSRFSGSGSGTDFTLTINSLEAEDAATYYCQQASSIPRMFTFGQGTKLEIKR	koff (Human CD19-his protein [5]): 5.65e-09 s⁻¹; kon (Human CD19-his protein [5]): 113000 M⁻¹ s⁻¹
